# Experiments:
# Kohinoor = assay: SEC; purified protein diluted to 10 μM, equilibrated at 6 °C overnight; 250 μL on Superdex 200 Increase 10/300 GL, run at 6 °C, 0.75 mL/min, absorption at 280 nm; elution volumes compared with tetrameric DsRed, dimeric dTomato and monomeric mEGFP
# Padron = assay: as above
stoichiometry N (Kohinoor),stoichiometry N (Padron),Substance
2,–,Kohinoor
–,4,Padron
